# Assay: yeast display, Sf9 membrane polyspecificity reagent, FACS + sequencing; frameworks hold sequencing errors
# Summary of the method: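 Galactose induction of a Saccharomyces cerevisiae BJ5465 synthetic nanobody display library ran 36–48 hours. The cells were then stained for 1 hour at 4 °C with 10% biotinylated, detergent-solubilized Sf9 membrane reagent, pulled down on streptavidin microbeads and FACS-sorted into low and high (top ~1%) gates on expression and reagent-binding fluorescence. Labels for polyreactivity follow the gate of origin.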
row,Sequence,polyreactivity (PSR sort gate)
1,QVQLVESGGGLVQAGGSLRLTCAASGRIFITNAMGWYSQAPGKEREMVAVISYIGGRTYYADSVKGRFTISRDNAKNTVYLQMNSLKPEDTAVYYCAARRSRPTYYSTGVNYWGQGTQVTVSS,high polyreactivity
2,QVQLVESGGGLVQAGGSLRLTCAASGRIFIYYAMGWYRQAPGKERELVAAISWGGGRTYYADSVKGRFTISRDNAKNTVYLQMNSLKPEDTAVYYCAAGVYTGQHEYDYWGQGTQVTVSS,low polyreactivity
3,QVQLVESGGGLVQAGGSLRLTCAASGRIFLINPMGWYRQAPGKDRELVAGIRGRTGSTNYADSVKGRFTISRDNAKNTVYLQMNRLKPEDTAVYYCAARFSVQDGGPYAYDYWGQGTQVTVSS,low polyreactivity
4,QVQLVESGGGLVQAGGSLRLTCAASGRIFNIYAMGWYRQAPGKERELVAAISVSGTRTYYADSVKGRFTISRDNAKNTVYLHMNSLKPEDTAVYYCAADSYGGVWTEHMYYWGQGTQVTVSS,low polyreactivity
5,QVQLVESGGGLVQAGGSLRLTCAASGRIFRTYAMGWYRQAPGKERELVAAISGRGGNTYYADSVKGRFTISRDNAKNTVYLQMNSLKPEDTAVYYCAASKPSRDTQQRWVYAGYDYWGQGTQVTVSS,high polyreactivity
6,QVQLVESGGGLVQAGGSLRLTCAASGRIFSANAMGWYRKAPGKERELVATISTGGGRTYYADSVKGRFTISRDYAKNTVYLQMNSLKAEDTAVYYCNDTGNYARFLYYSWCQGTQVTVSS,high polyreactivity
7,QVQLVESGGGLVQAGGSLRLTCAASGRIFSANAMGWYRLAPGKERELVAGIDSGGSTNYADSVKGRFTISGDNAKNTVYLQMNSLKPEDTAVYYCAKYRGRGNTYNGGYDYWGQVTQVTVSS,low polyreactivity
8,QVQLVESGGGLVQAGGSLRLTCAASGRIFSHNTMGWYRQAPGKERELVAAISGGGGRTYYADSVKGRFTISRDNAKNTVYLQMKSLKPEDTAVYYCAAVRVSYRSLSKSYYWGQGTQVTVSS,high polyreactivity
9,QVQLVESGGGLVQAGGSLRLTCAASGRIFTRYAMGWYRQAPGKERELVAAISYGGGGTYYADSVKGRFTISRDNAKNTVYLQMNSLKPEVTSVYYCAADPGYYSWGSSQDDYWGQGTQVTVSS,low polyreactivity
10,QVQLVESGGGLVQAGGSLRLTCAASGRIFYGYTMGWYRKAPGKERELVAAITRRGGRTYYADSVKGRFTISRDNAKNTVYLQMNCLKPEDTAVYYCAATRSGEYDYWGQGTQVTVSS,high polyreactivity
11,QVQLVESGGGLVQAGGSLRLTCAASGRIIIGYVMGWYRQAPGKERELVATISYSGGSTYADSVKGRFTISRDNAKNTVYLQMNSLKPEDTAVYYCAARPYYRYYRYPYGYWGQGTQVTVSS,high polyreactivity
12,QVQLVESGGGLVQAGGSLRLTCAASGRILGYNDMGWYRHAPGKERELVPTSSGTSTYYADSVKGRFTISRDNAKNTVYLQMNSLKPEVTAVYYCNTDYVITLPAYDYWGQGTQVTVSS,low polyreactivity
13,QVQLVESGGGLVQAGGSLRLTCAASGRILLVNAMGWSRQAPGKERELVAAITSGGSTNYADSVKGRFTISRDNAKNTVYFQMNSLKPEDTAVYFCAATITLYRSRGRYGYWGQGTQVTASS,high polyreactivity
14,QVQLVESGGGLVQAGGSLRLTCAASGRILTCYAMGWYRQEPGKERELVASINWRGGSTYYADSVKGRFTISRDNAKNTVYLQMNSLKPEDTAGYYCARYKYTRQTRVEYGYWGQGTQVTVSS,high polyreactivity
15,QVQLVESGGGLVQAGGSLRLTCAASGRILVSYSMGWYRQAPGKERELVAAISRSGGSTYYADSVKGRFTISRDNAKNTVYLQMNSLKPEDTAVYYWNVYRFSRYDYWGQGTQVTVSS,high polyreactivity
16,QVQLVESGGGLVQAGGSLRLTCAASGRSFRRYAMGWYREAPGKERELVAAITWRGSSTYYADSVKGRFTISRDNAKNTVYLQMNSLKPEDTAVYYCAADIGYTYEYYYWGQGTQVTLSS,high polyreactivity
17,QVQLVESGGGLVQAGGSLRLTCAASGRTFIVYAMGWYRQAPGKERELVAGITRGSTNYADSVKGRFTISRDNAKNTVYLQMNSLKPEDTAVYYCATEVYIWPWGTVYAFEYDYWGQGTQVTVSS,high polyreactivity
18,QVQLVESGGGLVQAGGSLRLTCAASGRTFNPYAMGWYRQAPGKERELVARIRGTGVSTYYADSVKGRFTISRDYAKNTVYLQMNSLKPEDTDVYYINAVATPVSDRWSYLSHGWYYYWGHGTQVTVSS,high polyreactivity
19,QVQLVESGGGLVQAGGSLRLTCAASGRTFNVNVMGWSRQAPGKERELVAAIRYTGGSTYADSVKGRFTISRDNAKNTVYLQMNSLKPEDTAVYYCNADTFFPFDHGMDYWGQGTQVTVSS,low polyreactivity
20,QVQLVESGGGLVQAGGSLRLTCAASGRTFRANAMGWYRQATGKERELVAAISQRGGNTYYADSVKGRFTSSRDNAKNTVYFQMNSLKPEDTAVYYCAADITTYRRGRYEYEYWGQGTQVTVSS,high polyreactivity
21,QVQLVESGGGLVQAGGSLRLTCAASGRTFRPYDMGWYRQAPGKQRELVATITTNGGSTYYADSVKGRFTISRDNAMNTVYLQMTSLKPEDTAGYYCATDNSWPTYHYDGGYYWGQGTQVTVSS,low polyreactivity
22,QVQLVESGGGLVQAGGSLRLTCAASGRTFRSYTMGWYRQAPGKERELVAAISGSGGRTYYADYVKGRFTISRDNAKNNVYLQMNILKPEDTADYYCNKGFTDYHYYYWGQGTQVTVSS,high polyreactivity

row,Sequence,polyreactivity (PSR sort gate)
1,QVQLVESGGGLVQAGGSLRLTCAASGRTFWRYGMGWYRPAPVKETELVAAITDSVDSTNYADSVKGRFTISRDNAKNTVYLQMNSLKPEDTAVYYCAASDVVFALNGYYPGEDDYWGQGTQVTVSS,low polyreactivity
2,QVQLVESGGGLVQAGGSLRLTCAASGRTFYFYTMGWYRQAPGKERELVATITWRGGRTYYADSVKGRFTITRDNAKNTVYLQMNSLKPEDTAVYYCNADYASYRHRMDYWGQGTQVTVSS,high polyreactivity
3,QVQLVESGGGLVQAGGSLRLTCAASGRTFYVYAMGWYRQAPGKERELVAAITRSGDSTYADSVKGRFTISRDNAKNTVYLQMNSLKPEDTAVYYCSKRYTHYSFRRFDYWGQGTQVTVSS,low polyreactivity
4,QVQLVESGGGLVQAGGSLRLTCAASGSIFAAKAMGWYRQAPGKERELVAAIRTRTGSTYYADSVKGRFTISRDNAKNTVYLEMNSLKPEDTAVYYCAADGGVPFWIHSTYYYWGQGTQVTVSS,low polyreactivity
5,QVQLVESGGGLVQAGGSLRLTCAASGSIFAKNAMGWYRQAPGKERELVAAIDLNGGSTYYADSVKGRFTISRDNAKNTDYLQMNSLKPEDTAVYYCAVYYGHSSVIRSSPEYDSWGQGTQVTVSS,low polyreactivity
6,QVQLVESGGGLVQAGGSLRLTCAASGSIFDKNVMGSYRQAPGKERELVAAISSSGGSTYYADSVKGRFTISRDIAKNTVYLQMNSLKPVDSAVYYCAKVPGRDRADRYWDHYSHDYWGQGTQVTVSS,high polyreactivity
7,QVQLVESGGGLVQAGGSLRLTCAASGSIFDSNAMGWYRQAPGKERELVADIRGIGGSTFYADSVKWRFTISRDNAKNTVYLQMNSLKPEDTAVYYCAAVGKSPSRFGYWGQGTQVTVSS,low polyreactivity
8,QVQLVESGGGLVQAGGSLRLTCAASGSIFGGYGMGWYRQAPGKERELVAAITSGTSTYYADSVKGRFTISRDNAKNTVYLQMNSLKPEDTAVYYCAARPYPHSAYEGDYWGRGTQVTVSS,low polyreactivity
9,QVQLVESGGGLVQAGGSLRLTCAASGSIFGGYTMGWYRQAPGKERELVAAISRRGGNTYYADSVKGRFTISRDNAKYTVYLQMNSLKPEDTAVYYCNARPTTYNYDYWGQGTQVTVSS,high polyreactivity
10,QVQLVESGGGLVQAGGSLRLTCAASGSIFGLYAMGWYRHAPGKERELVAAISRTGGSTYYADSVKGRFTISRDNAKNTVYLQMNSLKPEDTAVYSCNAVYFRYRYNYWGQGTQVTVSS,high polyreactivity
11,QVQLVESGGGLVQAGGSLRLTCAASGSIFGVYTMGWYRQAPGKERELVAAITSAGSTYADSVKGRFTISRDNAKNTVYLQMNSLNPEDTEVYYCNAQSFLLSLRVELREPHEYWGQGTQVTVSS,low polyreactivity
12,QVQLVESGGGLVQAGGSLRLTCAASGSIFNGNAMGWYRQAPGKERELVAAISNVGRTDYADSVKGRFTISRDNAKNTVYLQMNSLKPEDTAVYYCAAGVYSGYNRYFAPRSWFGYYYWGQGTQVTVSS,low polyreactivity
13,QVQLVESGGGLVQAGGSLRLTCAASGSIFPKNAIGWYRQAPGKERQLVAGITSRTGRTYYADSVKGRFTISRDNAENTVYLQMNSLKPEDTAVYYCAARNPSGKGRYDYWGQGSQVTVSS,high polyreactivity
14,QVQLVESGGGLVQAGGSLRLTCAASGSIFRSYAMGWYRQAPGNERELVAAISWRGGRTYYADSVKGRFTISRDNAKNTVYLQRNSLKPADTAVYYCAARKRAQQGTRDHDYWGQGTQVTVSS,high polyreactivity
15,QVQLVESGGGLVQAGGSLRLTCAASGSIFSYNAKGRYRQAPGKERELVAGITTGDSTNYADSVKGRFTISRDNAKNTVYLQMNCLKPEDTAVYYCAATRLVSYHYPDLDSQQGGYWGQGTQVTVSS,low polyreactivity
16,QVQLVESGGGLVQAGGSLRLTCAASGSIFTKYAMGWYRQAPGKERELVAGISSSGCSTYYADSVKGRFTISRDYAKNTVYLQMNSLKPEDTAVYYCAARGYYKYDYWGQGTQVTVSS,high polyreactivity
17,QVQLVESGGGLVQAGGSLRLTCAASGSIFVGYAMGWYREAPGKEMELVAAITTRGDTTYYADSVKGRFTISRDNAKNTVYLQMNSLKPEHTAVYYCNTTSFFQAWPSDVQYDYWGQGTQVTVSS,low polyreactivity
18,QVQLVESGGGLVQAGGSLRLTCAASGSIFYAYAMGWYRQAPGKERELVAGITFSDDSTYYADSVKGRFTISRDNAKNTVYLQMNSLKPEDTAVYYCAADTISWYGNYYYWGQGTQVTVSS,high polyreactivity
19,QVQLVESGGGLVQAGGSLRLTCAASGSIFYTNAMGWYRQAPGKERELVAAIRWSGGRTYYADSVKGRFTISRDNAKNTVYLQMNSLKPEDTAVYYCTVVVRYPSAYAYWGQGTQVTLSS,high polyreactivity
20,QVQLVESGGGLVQAGGSLRLTCAASGSIIVTYAMGWYRQAPGKERELVAVINSGTSTNYADSVKGRFTISRDNAKNTVYLQMNSLKPEDTAVYYCNADPLVYYYQDYRFCMGYWGQGTQVTVSS,low polyreactivity
21,QVQLVESGGGLVQAGGSLRLTCAASGSILDSNAMGWYRQAPGKERELVSAITSGGSTYYADSVKGRFTISRDNAKNTVYLQMNSLKPEDTAVYYCAAAYLGYGAVQPSYEGGYWGQGTQVTVSS,low polyreactivity

# Source: the nanobody polyreactivity screen of Harvey et al. (2022)
